Assay results as given in paper PMC3616908.

B1: N-terminal Rad9 CAD region (yeast two-hybrid fusion) [S. cerevisiae] / Chk1 (yeast two-hybrid fusion) [S. cerevisiae] (parent)
chain 1: MSGQLVQWKSSPDRVTQSAIKEALHSPLADGDMNEMNVPVDPLENKVNSTNIIEGSPKANPNPVKFMNTSEIFQKSLGLLDESPRHDDELNIEVGDNDRPNANILHNERTPDLDRIANFFKSNRTPGKENLLTKYQSSDLEDTPLMLRKKMTFQTPTDPLEQKTFKKLKSDTGFCYYGEQNDGEENASLEVTEADATFVQMAERSADNYDCALEGIVTPKRYKDELSKSGG
chain 2: MSLSQVSPLPHIKDVVLGDTVGQGAFACVKNAHLQMDPSIILAVKFIHVPTCKKMGLSDKDITKEVVLQSKCSKHPNVLRLIDCNVSKEYMWIILEMADGGDLFDKIEPDVGVDSDVAQFYFQQLVSAINYLHVECGVAHRDIKPENILLDKNGNLKLADFGLASQFRRKDGTLRVSMDQRGSPPYMAPEVLYSEEGYYADRTDIWSIGILLFVLLTGQTPWELPSLENEDFVFFIENDGNLNWGPWSKIEFTHLNLLRKILQPDPNKRVTLKALKLHPWVLRRASFSGDDGLCNDPELLAKKLFSHLKVSLSNENYLKFTQDTNSNNRYISTQPIGNELAELEHDSMHFQTVSNTQRAFTSYDSNTNYNSGTGMTQEAKWTQFISYDIAALQFHSDENDCNELVKRHLQFNPNKLTKFYTLQPMDVLLPILEKALNLSQIRVKPDLFANFERLCELLGYDNVFPLIINIKTKSNGGYQLCGSISIIKIEEELKSVGFERKTGDPLEWRRLFKKISTICRDIILIPN

Variants of: B1
Experiment: yeast two-hybrid (β-galactosidase activity)
Conditions: with Chk1 (yeast two-hybrid fusion) [S. cerevisiae]; parent: 1; read off a plot

Row | Variant | response
1 | chain 1 MSGQLVQWKSAPDRVTQSAIKEALHSPLADGDMNEMNVPVDPLENKVNSTNIIEGAPKANPNPVKFMNTSEIFQKSLGLLDEAPRHDDELNIEVGDNDRPNANILHNERAPDLDRIANFFKSNRAPGKENLLTKYQSSDLEDAPLMLRKKMTFQAPTDPLEQKTFKKLKSDTGFCYYGEQNDGEENASLEVTEADATFVQMAERSADNYDCALEGIVAPKRYKDELSKSGG [chain 1 S11A S56A S83A T110A T125A T143A T155A T218A] | 0.14 AU
2 | chain 1 MSGQLVQWKSAPDRVTQSAIKEALHAPLADGDMNEMNVPVDPLENKVNSTNIIEGAPKANPNPVKFMNTSEIFQKSLGLLDEAPRHDDELNIEVGDNDRPNANILHNERAPDLDRIANFFKSNRAPGKENLLTKYQSSDLEDTPLMLRKKMTFQAPTDPLEQKTFKKLKSDTGFCYYGEQNDGEENASLEVTEADATFVQMAERSADNYDCALEGIVAPKRYKDELSKSGG [chain 1 S11A S26A S56A S83A T110A T125A T155A T218A] | 0.8 AU
3 | chain 1 MSGQLVQWKSAPDRVTQSAIKEALHAPLADGDMNEMNVPVDPLENKVNSTNIIEGAPKANPNPVKFMNTSEIFQKSLGLLDEAPRHDDELNIEVGDNDRPNANILHNERTPDLDRIANFFKSNRAPGKENLLTKYQSSDLEDAPLMLRKKMTFQAPTDPLEQKTFKKLKSDTGFCYYGEQNDGEENASLEVTEADATFVQMAERSADNYDCALEGIVAPKRYKDELSKSGG [chain 1 S11A S26A S56A S83A T125A T143A T155A T218A] | 0.2 AU
4 | chain 1 MSGQLVQWKSAPDRVTQSAIKEALHAPLADGDMNEMNVPVDPLENKVNSTNIIEGAPKANPNPVKFMNTSEIFQKSLGLLDEAPRHDDELNIEVGDNDRPNANILHNERAPDLDRIANFFKSNRAPGKENLLTKYQSSDLEDAPLMLRKKMTFQAPTDPLEQKTFKKLKSDTGFCYYGEQNDGEENASLEVTEADATFVQMAERSADNYDCALEGIVTPKRYKDELSKSGG [chain 1 S11A S26A S56A S83A T110A T125A T143A T155A] | 0.15 AU
5 | chain 1 MSGQLVQWKSAPDRVTQSAIKEALHAPLADGDMNEMNVPVDPLENKVNSTNIIEGAPKANPNPVKFMNTSEIFQKSLGLLDEAPRHDDELNIEVGDNDRPNANILHNERAPDLDRIANFFKSNRAPGKENLLTKYQSSDLEDAPLMLRKKMTFQAPTDPLEQKTFKKLKSDTGFCYYGEQNDGEENASLEVTEADATFVQMAERSADNYDCALEGIVAPKRYKDELSKSGG [chain 1 S11A S26A S56A S83A T110A T125A T143A T155A T218A] | 0.07 AU
6 | chain 1 MSGQLVQWKSAPDRVTQSAIKEALHAPLADGDMNEMNVPVDPLENKVNSTNIIEGAPKANPNPVKFMNTSEIFQKSLGLLDEAPRHDDELNIEVGDNDRPNANILHNERAPDLDRIANFFKSNRAPGKENLLTKYQSSDLEDAPLMLRKKMTFQTPTDPLEQKTFKKLKSDTGFCYYGEQNDGEENASLEVTEADATFVQMAERSADNYDCALEGIVAPKRYKDELSKSGG [chain 1 S11A S26A S56A S83A T110A T125A T143A T218A] | 0.28 AU
7 | chain 1 MSGQLVQWKSAPDRVTQSAIKEALHAPLADGDMNEMNVPVDPLENKVNSTNIIEGSPKANPNPVKFMNTSEIFQKSLGLLDEAPRHDDELNIEVGDNDRPNANILHNERAPDLDRIANFFKSNRAPGKENLLTKYQSSDLEDAPLMLRKKMTFQAPTDPLEQKTFKKLKSDTGFCYYGEQNDGEENASLEVTEADATFVQMAERSADNYDCALEGIVAPKRYKDELSKSGG [chain 1 S11A S26A S83A T110A T125A T143A T155A T218A] | 0.18 AU
8 | chain 1 MSGQLVQWKSSPDRVTQSAIKEALHAPLADGDMNEMNVPVDPLENKVNSTNIIEGAPKANPNPVKFMNTSEIFQKSLGLLDEAPRHDDELNIEVGDNDRPNANILHNERAPDLDRIANFFKSNRAPGKENLLTKYQSSDLEDAPLMLRKKMTFQAPTDPLEQKTFKKLKSDTGFCYYGEQNDGEENASLEVTEADATFVQMAERSADNYDCALEGIVAPKRYKDELSKSGG [chain 1 S26A S56A S83A T110A T125A T143A T155A T218A] | 0.22 AU
9 | chain 1 MSGQLVQWKSAPDRVTQSAIKEALHAPLADGDMNEMNVPVDPLENKVNSTNIIEGAPKANPNPVKFMNTSEIFQKSLGLLDEAPRHDDELNIEVGDNDRPNANILHNERAPDLDRIANFFKSNRTPGKENLLTKYQSSDLEDAPLMLRKKMTFQAPTDPLEQKTFKKLKSDTGFCYYGEQNDGEENASLEVTEADATFVQMAERSADNYDCALEGIVAPKRYKDELSKSGG [chain 1 S11A S26A S56A S83A T110A T143A T155A T218A] | 0.59 AU
10 | chain 1 MSGQLVQWKSAPDRVTQSAIKEALHAPLADGDMNEMNVPVDPLENKVNSTNIIEGAPKANPNPVKFMNTSEIFQKSLGLLDESPRHDDELNIEVGDNDRPNANILHNERAPDLDRIANFFKSNRAPGKENLLTKYQSSDLEDAPLMLRKKMTFQAPTDPLEQKTFKKLKSDTGFCYYGEQNDGEENASLEVTEADATFVQMAERSADNYDCALEGIVAPKRYKDELSKSGG [chain 1 S11A S26A S56A T110A T125A T143A T155A T218A] | 0.18 AU
